Results: publication doi:10.64898/2025.12.14.694184 (bioRxiv, 2025)

B1: human TorsinA-StrepTagII-FLAG-StrepTagII (enzyme, UniProt O14656 21-332, looked up)
chain: VEPISLGLALAGVLTGYIYPRLYCLFAECCGQKRSLSREALQKDLDDNLFGQHLAKKIILNAVFGFINNPKPKKPLTLSLHGWTGTGKNFVSKIIAENIYEGGLNSDYVHLFVATLHFPHASNITLYKDQLQLWIRGNVSACARSIFIFDEMDKMHAGLIDAIKPFLDYYDLVDGVSYQKAMFIFLSNAGAERITDVALDFWRSGKQREDIKLKDIEHALSVSVFNNKNSGFWHSSLIDRNLIDYFVPFLPLEYKHLKMCIRVEMQSRGYEIDEDIVSRVAEEMTFFPKEERVFSDKGCKTVFTKLDYYYDD

Assays:
[1] = target: the molecule itself; assay: native gel or EMSA
[2] = target: the molecule itself; assay: non-reducing SDS-PAGE
[3] = target: B1; assay: pull-down

binding result [3] | Binder | binding result [1] | stoichiometry N [2]
– | B1 | binds | –
binds | mouse CLCC1 N-terminal domain dimer (CLCC1-NTD-6×His) (domain or fragment, UniProt Q99LI2 19-184, looked up, inter-molecular disulfide bonds in the dimer) HDDDWIDPTDMLNYDAASGTMRKSQVRSGTSEKKEVSPDSSEAEELSDCLHRLDSLTHKVDSCEKKKMKDYESQSNPVFRRYLNKILIEAGKLGLPDENKVEMRYDAEILLSRQTLLEIQKFLSGEEWKPGALDDALSDILINFKCHDSEAWKWQFEDYFGVDPYN | – | 2
